Test results taken from paper PMC10000386.

Biological target: T1, Bak ΔBH3, Q16611
T1 chain: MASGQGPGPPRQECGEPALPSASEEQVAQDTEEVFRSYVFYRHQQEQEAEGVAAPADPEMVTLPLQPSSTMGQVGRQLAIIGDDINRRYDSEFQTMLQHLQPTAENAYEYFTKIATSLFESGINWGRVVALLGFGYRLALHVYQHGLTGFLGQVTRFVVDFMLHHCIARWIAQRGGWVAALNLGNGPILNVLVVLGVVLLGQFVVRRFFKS
Test: BiFC (flow cytometry)
Conditions: chain shown with the change; 6 independent experiments; read off a plot

- response (Mean Venus/Mean mRFP): 0.95
B1: Bak, Q16611 H164A (protein)
chain: MASGQGPGPPRQECGEPALPSASEEQVAQDTEEVFRSYVFYRHQQEQEAEGVAAPADPEMVTLPLQPSSTMGQVGRQLAIIGDDINRRYDSEFQTMLQHLQPTAENAYEYFTKIATSLFESGINWGRVVALLGFGYRLALHVYQHGLTGFLGQVTRFVVDFMLAHCIARWIAQRGGWVAALNLGNGPILNVLVVLGVVLLGQFVVRRFFKS
